# Changes are numbered by the printed parent chain.
# T1: mouse SEMA4D, full length, on CHO-K1 cells (CHO-K1 mSEMA4D) (mouse, UniProt O09126 24-861)
# T1 construct: whole, on cells; also called murine SEMA4D recombinant cells
# T1 sequence (looked up): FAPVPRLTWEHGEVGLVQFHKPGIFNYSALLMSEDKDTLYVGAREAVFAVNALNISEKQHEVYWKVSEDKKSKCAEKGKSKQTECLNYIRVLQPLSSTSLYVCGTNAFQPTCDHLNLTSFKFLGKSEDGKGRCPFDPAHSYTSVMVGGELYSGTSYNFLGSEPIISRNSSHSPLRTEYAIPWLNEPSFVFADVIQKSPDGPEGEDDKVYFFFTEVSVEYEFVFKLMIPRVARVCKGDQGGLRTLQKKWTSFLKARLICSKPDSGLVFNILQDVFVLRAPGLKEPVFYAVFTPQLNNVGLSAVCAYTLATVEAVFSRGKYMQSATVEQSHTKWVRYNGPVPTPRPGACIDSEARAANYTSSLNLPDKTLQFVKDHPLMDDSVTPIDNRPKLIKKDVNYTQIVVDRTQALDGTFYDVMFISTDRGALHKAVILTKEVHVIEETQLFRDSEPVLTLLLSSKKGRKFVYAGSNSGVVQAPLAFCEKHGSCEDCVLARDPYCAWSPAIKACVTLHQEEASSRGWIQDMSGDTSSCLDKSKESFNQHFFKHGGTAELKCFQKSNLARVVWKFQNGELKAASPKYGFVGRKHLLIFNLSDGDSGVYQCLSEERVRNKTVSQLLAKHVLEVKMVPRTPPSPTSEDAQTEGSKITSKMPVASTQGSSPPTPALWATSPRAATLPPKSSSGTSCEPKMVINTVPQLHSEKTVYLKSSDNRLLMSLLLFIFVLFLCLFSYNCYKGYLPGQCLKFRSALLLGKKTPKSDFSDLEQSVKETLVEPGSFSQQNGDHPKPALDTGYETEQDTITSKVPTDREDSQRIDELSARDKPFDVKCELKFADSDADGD
# T2: human SEMA4D, full length, on CHO-K1 cells (CHO-K1 hSEMA4D) (human, UniProt Q92854 22-862)
# T2 construct: whole, on cells; also called human SEMA4D recombinant cells
# T2 sequence (looked up): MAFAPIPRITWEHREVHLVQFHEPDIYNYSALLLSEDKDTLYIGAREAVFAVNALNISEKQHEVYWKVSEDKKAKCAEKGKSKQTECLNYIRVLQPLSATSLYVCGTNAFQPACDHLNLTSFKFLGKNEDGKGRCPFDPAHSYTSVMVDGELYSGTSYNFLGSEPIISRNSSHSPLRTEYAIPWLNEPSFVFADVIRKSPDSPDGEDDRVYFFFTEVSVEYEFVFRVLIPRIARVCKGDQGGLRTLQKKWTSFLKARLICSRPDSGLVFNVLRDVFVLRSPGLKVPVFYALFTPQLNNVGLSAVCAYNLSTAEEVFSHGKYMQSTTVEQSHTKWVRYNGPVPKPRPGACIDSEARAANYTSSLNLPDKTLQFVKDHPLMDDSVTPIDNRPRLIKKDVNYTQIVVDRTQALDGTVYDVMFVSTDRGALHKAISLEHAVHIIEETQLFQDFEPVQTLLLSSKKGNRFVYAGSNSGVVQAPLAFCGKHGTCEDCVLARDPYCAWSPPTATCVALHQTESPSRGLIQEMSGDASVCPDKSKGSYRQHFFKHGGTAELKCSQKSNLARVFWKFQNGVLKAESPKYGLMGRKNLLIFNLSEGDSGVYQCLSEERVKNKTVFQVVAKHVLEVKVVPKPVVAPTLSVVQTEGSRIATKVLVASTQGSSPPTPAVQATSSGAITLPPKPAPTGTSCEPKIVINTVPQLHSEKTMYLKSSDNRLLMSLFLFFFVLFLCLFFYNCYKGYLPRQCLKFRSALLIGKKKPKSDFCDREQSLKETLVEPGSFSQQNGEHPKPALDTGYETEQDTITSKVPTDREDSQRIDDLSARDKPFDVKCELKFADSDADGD
# B1: 32C8F10 (antibody, V domains shown)
# VH: EVQLQQSGAELVRPGASVKLSCTASGFNIKDEYIHWVKQRPEQGLEWIGWIDPANGHTEYASRFQAKATITADTSSNTAYLQLSSLTSEDTAVYYCTTGDYDGFAYWGQGTLVTVST
# VL: QIVLTQSPAIMSASPGEKVTISCSARSSVSYMYWYQQKPGSSPKPWIYRTSNLASGVPARFSGSGSGTSYSLTISSMEAEDAATYYCQHYHTYPYTFGGGTKLEIK
# notes: Mouse monoclonal antibody purified from hybridoma supernatant on protein A
# B2: 31G10C5 (antibody, V domains shown)
# VH: B1 VH with E32D, T58I, R63N, A105T
# VL: B1 VL
# notes: as for B1
# B3: 31C11G2 (antibody, V domains shown)
# VH: B1 VH with A105V
# VL: B1 VL with S22F
# notes: as for B1
# B4: 42B7G2 (antibody, V domains shown)
# VH: QVQLQQSGAELARPGASVKLSCKASGYTFTDYGISWVKQRTGQGLEWIGEIYLRNDNSYYNEKFKGKATLTADKSSNTAYMELRSLTSEDSAVYFCARWGDHGNNYEDAMDYWGQGTSVTVSS
# VL: DIVLTQSPASLAMSLGKRATISCRASESVSIIGSNLIHWYQQKPGQPPKLLIYHASNLETGVPARFSGSGSRTDFTLTIDPVEEDDVAIYYCLQSRKVPYTFGGGTKLEIK
# notes: as for B1
# B5: 37F11F9 (antibody, V domains shown)
# VH: EVQLQQSGPVLVKPGASVKMSCKASGYTFTDYYMNWVKQSHGKSLEWIGLINPYSGGSTFNQKFKAKATLTVDKSSSSAYMDLNSLTSEDSAVYYCARVGDGYYGVTHGMDYWGQGTSVTVSS
# VL: DIVMTPSQKFMSTTVGDRVSITCKASQNVGTAVAWYQQKPGQSPTILIYSASNRYTGVPDRFTGSGSGTDFTLTISNMKSEDLADYFCQQYYIYPFTFAAGTKLELK
# notes: as for B1
# B6: 37C4F7 (antibody, V domains shown)
# VH: EFQLQQSGPEVVKPGASVKISCKASGYSFTDYNMNWMKQSKGKSLEWIGVINPNYGTTTYNQNFKGKATLTVDQSSSTAYMQLNSLTSEDSAVYYCARDMYYVYAYYTMDYWGQGTSVTVSS
# VL: DVVMTQTPLSLPVSLGDQASISCRSSQSLVHSNGHTYLHWYLQRPGQSPTLLIYKVSNRFSGVPDRFSGSGSGTDFTLKISRVEAEDLGVYFCSQGTHVPWTFGGGTKLEIK
# notes: as for B1
# B7: 38H2E3 (antibody, V domains shown)
# VH: B6 VH with N52S, N54D, G66D, R98K, Q114H
# VL: B6 VL with F67V, W101R
# notes: as for B1
# Molecular target: T1, mouse SEMA4D, full length, on CHO-K1 …
# Assay: FACS, CHO-K1 mSEMA4D cells; Ab 2.67 nM
# Description: (§1) After the cells were counted, they were diluted with PBS to 2×10⁶ cells per milliliter. After washing, 100 μL of diluted and purified leading antibodies was added to each well and the plate was incubated for 1 hour on ice. […] Cells were washed 2 times by centrifugation with FACS buffer. The cells were suspended with 200 μL of FACS buffer, FACS (FACS Verse, purchased from BD) was used to detect and analyze the results.
row,MFI,Binder
1,30.7,B1
2,30.1,B2
3,30.5,B3
4,31,B4
5,30.6,B5
6,30,B6
7,30.7,B7

# Molecular target: T2, human SEMA4D, full length, on CHO-K1 …
# Assay: FACS, CHO-K1 hSEMA4D cells; Ab 13.3 nM
# Description: (§2) The medium was aspirated, the cells were washed once with PBS buffer (purchased from Invitrogen), and then treated with cell dissociation fluid (TrypLE™ Express Enzyme, purchased from Life technology), and the cells were collected. After the cells counted, the cells were washed once with PBS phosphate buffer, and diluted to 3×10⁶ cells per milliliter, and added to the 96-well FACS reaction plate as 100 μL per well. 2% (w/w) fetal calf serum was added to PBS phosphate buffer as FACS buffer, with which the cells were washed once by centrifugation at 2000 rpm 4° C. 100 μL of diluted and purified leading antibodies was added to each well and the plate was incubated for 1 hour on ice. […] Cells were washed 2 times by centrifugation with FACS buffer. The cells were suspended with 200 μL of FACS buffer, and FACS (FACS Verse, purchased from BD) was used to detect and analyze the results.
row,MFI,Binder
1,7830,B1
2,6180,B2
3,6670,B3
4,3950,B4
5,3960,B5
6,4290,B6
7,4630,B7

# Molecular target: T1, mouse SEMA4D, full length, on CHO-K1 …
# Assay: FACS, CHO-K1 mSEMA4D cells; Ab 0.107 nM
# Description: as §1
row,MFI,Binder
1,30.2,B1
2,29.6,B2
3,30.6,B3
4,30.4,B4
5,29.7,B5
6,30.1,B6
7,30.5,B7

# Molecular target: T2, human SEMA4D, full length, on CHO-K1 …
# Assay: FACS, CHO-K1 hSEMA4D cells; Ab 0.000853 nM
# Description: as §2
row,MFI,Binder
1,47.3,B1
2,47,B2
3,46.7,B3
4,41.2,B4
5,38.2,B5
6,36.9,B6
7,36.7,B7
